# Results as given in IntAct's records for PubMed 36402845.
# B1: Exostosin-1 (Homo sapiens), Q16394 (parent)
# chain: MQAKKRYFILLSAGSCLALLFYFGGLQFRASRSHSRREEHSGRNGLHHPSPDHFWPRFPDALRPFVPWDQLENEDSSVHISPRQKRDANSSIYKGKKCRMESCFDFTLCKKNGFKVYVYPQQKGEKIAESYQNILAAIEGSRFYTSDPSQACLFVLSLDTLDRDQLSPQYVHNLRSKVQSLHLWNNGRNHLIFNLYSGTWPDYTEDVGFDIGQAMLAKASISTENFRPNFDVSIPLFSKDHPRTGGERGFLKFNTIPPLRKYMLVFKGKRYLTGIGSDTRNALYHVHNGEDVVLLTTCKHGKDWQKHKDSRCDRDNTEYEKYDYREMLHNATFCLVPRGRRLGSFRFLEALQAACVPVMLSNGWELPFSEVINWNQAAVIGDERLLLQIPSTIRSIHQDKILALRQQTQFLWEAYFSSVEKIVLTTLEIIQDRIFKHISRNSLIWNKHPGGLFVLPQYSSYLGDFPYYYANLGLKPPSKFTAVIHAVTPLVSQSQPVLKLLVAAAKSQYCAQIIVLWNCDKPLPAKHRWPATAVPVVVIEGESKVMSSRFLPYDNIITDAVLSLDEDTVLSTTEVDFAFTVWQSFPERIVGYPARSHFWDNSKERWGYTSKWTNDYSMVLTGAAIYHKYYHYLYSHYLPASLKNMVDQLANCEDILMNFLVSAVTKLPPIKVTQKKQYKETMMGQTSRASRWADPDHFAQRQSCMNTFASWFGYMPLIHSQMRLDPVLFKDQVSILRKKYRDIERL
# partner: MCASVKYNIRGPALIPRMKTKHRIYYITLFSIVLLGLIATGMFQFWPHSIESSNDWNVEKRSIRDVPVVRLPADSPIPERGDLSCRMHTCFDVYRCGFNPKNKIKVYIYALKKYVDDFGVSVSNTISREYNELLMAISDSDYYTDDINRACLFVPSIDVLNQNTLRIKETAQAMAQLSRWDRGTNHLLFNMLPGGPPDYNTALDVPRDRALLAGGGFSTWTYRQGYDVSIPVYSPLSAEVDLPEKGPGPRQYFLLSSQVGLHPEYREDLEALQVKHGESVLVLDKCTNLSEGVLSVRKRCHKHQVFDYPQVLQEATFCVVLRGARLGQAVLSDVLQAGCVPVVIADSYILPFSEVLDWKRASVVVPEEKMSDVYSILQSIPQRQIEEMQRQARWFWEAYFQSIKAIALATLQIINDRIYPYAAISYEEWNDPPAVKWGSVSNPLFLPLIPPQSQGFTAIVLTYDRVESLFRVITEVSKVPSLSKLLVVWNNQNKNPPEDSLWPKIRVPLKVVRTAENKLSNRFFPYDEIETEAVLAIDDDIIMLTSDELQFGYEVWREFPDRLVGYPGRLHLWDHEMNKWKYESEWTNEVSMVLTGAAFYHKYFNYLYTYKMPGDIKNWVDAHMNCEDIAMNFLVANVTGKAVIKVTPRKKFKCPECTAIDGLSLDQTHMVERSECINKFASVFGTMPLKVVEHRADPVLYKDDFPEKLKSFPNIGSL
# B2: Exostosin-2 (Homo sapiens), Q93063 (parent)
# chain: B1 partner
# partner: B1 chain
# Variants of: B1
# Settings: with ext2_human EXT2, Q93063
row,effect of a mutation on the interaction,Variant
1,decreasing interaction strength,D565N;D567N
2,with no effect,R280A
3,with no effect,D162N;D164N
4,with no effect,R346A

# Variants of: B2
# Settings: with ext1_human EXT1, Q16394
row,effect of a mutation on the interaction,Variant
1,with no effect,R266A
2,with no effect,D538N;D540N
